Results published in article doi:10.1101/2023.01.11.523539.

Key:
Experiment in all cases: two-hybrid
[1] = target: BD-MLA13 (wild-type MLA13 fused N-terminally to the LexA binding domain) (barley)
[2] = target: BD-MLA13^D2A_E17A (α1-helix mutant of MLA13 fused N-terminally to the LexA binding domain) (barley)
[3] = target: BD-MLA13^F99E (CC domain mutant of MLA13 fused N-terminally to the LexA binding domain) (barley)

AD-AVRA13-V2 (AVRA13-V2 lacking signal peptide, fused N-terminally to the B42 activation domain and 1xHA) (natural protein)
lowest dilution of yeast with growth without leucine [1]: 0.001 OD600 | lowest dilution of yeast with growth without leucine [2]: 0.01 OD600 | lowest dilution of yeast with growth without leucine [3]: 0.01 OD600
